Measurements from patent US20130143251A1.

Tests used:
[1] = target: doubly labelled ubiquitinated peptide 32: Dnp-labelled Ub linked through a native isopeptide bond to MCA-(Nle)FKTEG (FRET substrate) (human)
[2] = target: ubiquitinated peptide 20 (full Ub linked through a native isopeptide bond to the H2B 8-mer AVTKYTSK) (human)
[3] = target: ubiquitinated peptide 24 (full Ub linked through a native isopeptide bond to a 31-mer from the C-terminus of H2B) (human)

increase of fluorescence emission upon cleavage (FRET assay) (fold increase in fluorescence) [1]: 6
percent hydrolysis, HPLC (% hydrolysis within 30 minutes) [2]: 75
percent hydrolysis, HPLC (% hydrolysis within 30 minutes) [3]: 25
Substance: recombinant human UCH-L3 (ubiquitin C-terminal hydrolase) (from UniProt P15374) (enzyme)
